Like-named read-outs stand apart in the source and are kept apart here.
How the values were obtained:
[1] = target: Human FcγRIIIa_V158 (human)
[2] = target: Human FcγRIIIa_V158 (human); remark: listed apart in the source

Substance	relative ADCC activity (NK cell line expressing FcγRIIIa V158; target cells expressing a receptor of the EGFR family; relative to a reference material set to 100%) [1]	relative ADCC activity (NK cell line expressing FcγRIIIa V158; target cells expressing a receptor of the EGFR family; relative to a reference material set to 100%) [2]
IgG1, di-sialylated variant (antibody)	115%	–
IgG1, mono-sialylated variant (antibody)	104%	–
IgG1, hypo-galactosylated variant (antibody)	–	66%
IgG1, hyper-galactosylated variant (antibody)	–	118%
